Data: the supplement of paper PMC10065799, “High-throughput profiling of sequence recognition by tyrosine kinases and SH2 domains using bacterial peptide display” (eLife, 2023)

Biological target: Hck (UniProt P08631)
Assay: phosphorylation enrichment, bacterial display (enrichment ratio); higher = better substrate or ligand; peptides without Tyr show the background
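Note: 11-residue human phosphosite peptides and single-mutation variants displayed on the E. coli surface, counted by deep sequencing, each peptide's frequency after selection divided by its frequency in the unselected input library; frequency after pTyr selection over input frequency; kinase dosed for 20-30% of maximal phosphorylation in three min.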

Chain of Hck (P08631 whole entry, looked up): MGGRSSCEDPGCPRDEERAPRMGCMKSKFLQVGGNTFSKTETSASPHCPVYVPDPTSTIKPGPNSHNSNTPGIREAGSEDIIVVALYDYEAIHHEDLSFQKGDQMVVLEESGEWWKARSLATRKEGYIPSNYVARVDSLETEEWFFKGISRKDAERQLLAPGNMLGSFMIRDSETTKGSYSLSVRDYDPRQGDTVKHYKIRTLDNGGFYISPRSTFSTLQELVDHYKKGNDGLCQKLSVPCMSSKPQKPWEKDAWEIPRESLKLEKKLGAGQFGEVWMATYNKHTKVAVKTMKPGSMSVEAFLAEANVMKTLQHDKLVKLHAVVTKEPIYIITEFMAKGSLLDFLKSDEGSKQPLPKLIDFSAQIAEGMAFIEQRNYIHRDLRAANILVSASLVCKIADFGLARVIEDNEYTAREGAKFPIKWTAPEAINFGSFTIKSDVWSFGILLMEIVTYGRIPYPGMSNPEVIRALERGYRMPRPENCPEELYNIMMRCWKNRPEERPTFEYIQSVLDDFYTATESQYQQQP

Sequence	phosphorylation enrichment
TFEFRYLEDRD [CNOT3_Y746_YF]	0.67
RWHEGYRQTPK [CD44_Y412]	0.429
YPKVRYHWLVL [APTX_Y214_A212V]	0.547
DTKPVYQNLRQ [BOD1_Y82_A81V]	1.29
DTQNSYWCATS [TSC1_Y304_G305W]	0.518
GLDGSYLLRDS [SH2D1A_Y29]	0.563
ESVNTYLQTSP [NAT1_Y208_M205V]	0.556
PSAEGYQDVRD [ABLIM1_Y439]	0.545
MSSHHCDFKKF [ZNF445_Y428_Y428C_YF]	0.452
NLTVNYKKNLI [SQOR_Y259]	0.389
SPPEVYAIMRG [NTRK1_Y757_C752S]	2.91
EVEFQYPFRLH [SYP_Y73_E72Q]	0.473
FHKALYTVRSY [PDE6C_Y266]	0.801
DLQDEYDFKRK [STAT1_Y170_C174R]	0.472
IVTLKYPIEHG [ACTB_Y69_L65V]	0.466
EILLSYPRTGF [TGM1_Y365_L366P_YF]	0.534
EIASHYRHLLR [ZBTB46_Y14_T11A]	0.573

Sequence	phosphorylation enrichment
DRLASYLDKVR [KRT10_Y160]	0.454
LLSVAYQNVVG [YWHAG_Y49_K50Q]	0.632
MALDIYRASYY [ALK_Y1278_R1275L]	1.57
KIIRWYVSSEG [ANK2_Y3907_R3906W]	0.498
LEAVSYSSPFA [RNLS_Y190_R193P_YF]	0.615
AAVDTVCRHNF [HLA-DRB1_Y107_Y107V_YF]	0.429
RRIHSYRGYLW [VHL_Y112_H115Y]	0.64
LLDGEYFTLQI [TP53_Y327_P322L]	2.24
RVNSAYQDKVS [ACAN_Y100]	0.396
LGGAMYFLEAE [PKHD1_Y452_YF]	1.07
NPSFNYEIVNR [DYNC1H1_Y3379_YF]	0.535
HFEFKYVINAI [MAOA_Y268_C266F_YF]	0.668
QDGYSYLSRQM [LDLR_Y847_P848L]	0.646
TEQDPYNSIVR [MMUT_Y364_N366S]	0.551
YTHSDYQYGQR [PKP2_Y166_S169G]	0.703
LITILYIGFLG [KCNQ1_Y267_T265I]	1.08

Biological target: Jak2 (UniProt O60674)
Assay: as above

Chain of Jak2 (O60674 whole entry, looked up): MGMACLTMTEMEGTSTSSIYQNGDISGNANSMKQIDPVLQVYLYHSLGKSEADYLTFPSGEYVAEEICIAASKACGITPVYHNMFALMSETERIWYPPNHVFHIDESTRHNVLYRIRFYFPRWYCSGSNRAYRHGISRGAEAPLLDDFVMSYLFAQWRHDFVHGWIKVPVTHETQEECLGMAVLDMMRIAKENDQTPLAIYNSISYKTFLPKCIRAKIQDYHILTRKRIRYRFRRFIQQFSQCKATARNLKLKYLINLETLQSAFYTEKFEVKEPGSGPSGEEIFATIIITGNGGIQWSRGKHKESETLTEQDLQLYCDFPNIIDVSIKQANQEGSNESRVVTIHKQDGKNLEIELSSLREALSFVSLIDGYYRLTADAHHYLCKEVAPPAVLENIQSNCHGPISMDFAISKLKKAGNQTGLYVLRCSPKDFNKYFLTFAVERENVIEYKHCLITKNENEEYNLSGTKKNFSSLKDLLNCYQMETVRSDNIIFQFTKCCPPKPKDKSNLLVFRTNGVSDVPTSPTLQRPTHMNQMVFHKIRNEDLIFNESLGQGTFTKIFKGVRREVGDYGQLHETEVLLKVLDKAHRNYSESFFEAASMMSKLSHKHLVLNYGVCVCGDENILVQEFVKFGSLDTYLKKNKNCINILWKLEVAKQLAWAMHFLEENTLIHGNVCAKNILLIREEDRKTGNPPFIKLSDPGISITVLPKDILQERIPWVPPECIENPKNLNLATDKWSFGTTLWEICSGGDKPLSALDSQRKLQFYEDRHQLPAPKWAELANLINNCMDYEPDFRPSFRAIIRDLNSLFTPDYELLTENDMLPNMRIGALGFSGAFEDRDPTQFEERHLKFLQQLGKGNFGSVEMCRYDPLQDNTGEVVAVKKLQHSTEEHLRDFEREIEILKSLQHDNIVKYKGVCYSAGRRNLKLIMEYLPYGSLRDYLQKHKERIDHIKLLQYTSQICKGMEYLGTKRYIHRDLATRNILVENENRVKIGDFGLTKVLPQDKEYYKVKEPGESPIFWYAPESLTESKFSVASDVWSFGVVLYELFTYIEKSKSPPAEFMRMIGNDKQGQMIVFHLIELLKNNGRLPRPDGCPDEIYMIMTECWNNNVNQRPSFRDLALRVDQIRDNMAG

Sequence	phosphorylation enrichment
TFEFRYLEDRD [CNOT3_Y746_YF]	1.17
RWHEGYRQTPK [CD44_Y412]	0.607
YPKVRYHWLVL [APTX_Y214_A212V]	1.06
DTKPVYQNLRQ [BOD1_Y82_A81V]	0.621
DTQNSYWCATS [TSC1_Y304_G305W]	0.805
GLDGSYLLRDS [SH2D1A_Y29]	0.578
ESVNTYLQTSP [NAT1_Y208_M205V]	0.799
PSAEGYQDVRD [ABLIM1_Y439]	0.873
MSSHHCDFKKF [ZNF445_Y428_Y428C_YF]	0.519
NLTVNYKKNLI [SQOR_Y259]	0.619
SPPEVYAIMRG [NTRK1_Y757_C752S]	0.718
EVEFQYPFRLH [SYP_Y73_E72Q]	1.1
FHKALYTVRSY [PDE6C_Y266]	0.704
DLQDEYDFKRK [STAT1_Y170_C174R]	0.916
IVTLKYPIEHG [ACTB_Y69_L65V]	0.74
EILLSYPRTGF [TGM1_Y365_L366P_YF]	0.872
EIASHYRHLLR [ZBTB46_Y14_T11A]	0.703

Sequence	phosphorylation enrichment
DRLASYLDKVR [KRT10_Y160]	0.533
LLSVAYQNVVG [YWHAG_Y49_K50Q]	1.22
MALDIYRASYY [ALK_Y1278_R1275L]	0.86
KIIRWYVSSEG [ANK2_Y3907_R3906W]	1.2
LEAVSYSSPFA [RNLS_Y190_R193P_YF]	0.952
AAVDTVCRHNF [HLA-DRB1_Y107_Y107V_YF]	1.15
RRIHSYRGYLW [VHL_Y112_H115Y]	0.717
LLDGEYFTLQI [TP53_Y327_P322L]	8.38
RVNSAYQDKVS [ACAN_Y100]	1.36
LGGAMYFLEAE [PKHD1_Y452_YF]	1.34
NPSFNYEIVNR [DYNC1H1_Y3379_YF]	1.1
HFEFKYVINAI [MAOA_Y268_C266F_YF]	1.81
QDGYSYLSRQM [LDLR_Y847_P848L]	0.784
TEQDPYNSIVR [MMUT_Y364_N366S]	0.889
YTHSDYQYGQR [PKP2_Y166_S169G]	0.317
LITILYIGFLG [KCNQ1_Y267_T265I]	2.73

Biological target: EPHB2 (UniProt P29323)
Assay: as above

Chain of EPHB2 (P29323 whole entry, looked up): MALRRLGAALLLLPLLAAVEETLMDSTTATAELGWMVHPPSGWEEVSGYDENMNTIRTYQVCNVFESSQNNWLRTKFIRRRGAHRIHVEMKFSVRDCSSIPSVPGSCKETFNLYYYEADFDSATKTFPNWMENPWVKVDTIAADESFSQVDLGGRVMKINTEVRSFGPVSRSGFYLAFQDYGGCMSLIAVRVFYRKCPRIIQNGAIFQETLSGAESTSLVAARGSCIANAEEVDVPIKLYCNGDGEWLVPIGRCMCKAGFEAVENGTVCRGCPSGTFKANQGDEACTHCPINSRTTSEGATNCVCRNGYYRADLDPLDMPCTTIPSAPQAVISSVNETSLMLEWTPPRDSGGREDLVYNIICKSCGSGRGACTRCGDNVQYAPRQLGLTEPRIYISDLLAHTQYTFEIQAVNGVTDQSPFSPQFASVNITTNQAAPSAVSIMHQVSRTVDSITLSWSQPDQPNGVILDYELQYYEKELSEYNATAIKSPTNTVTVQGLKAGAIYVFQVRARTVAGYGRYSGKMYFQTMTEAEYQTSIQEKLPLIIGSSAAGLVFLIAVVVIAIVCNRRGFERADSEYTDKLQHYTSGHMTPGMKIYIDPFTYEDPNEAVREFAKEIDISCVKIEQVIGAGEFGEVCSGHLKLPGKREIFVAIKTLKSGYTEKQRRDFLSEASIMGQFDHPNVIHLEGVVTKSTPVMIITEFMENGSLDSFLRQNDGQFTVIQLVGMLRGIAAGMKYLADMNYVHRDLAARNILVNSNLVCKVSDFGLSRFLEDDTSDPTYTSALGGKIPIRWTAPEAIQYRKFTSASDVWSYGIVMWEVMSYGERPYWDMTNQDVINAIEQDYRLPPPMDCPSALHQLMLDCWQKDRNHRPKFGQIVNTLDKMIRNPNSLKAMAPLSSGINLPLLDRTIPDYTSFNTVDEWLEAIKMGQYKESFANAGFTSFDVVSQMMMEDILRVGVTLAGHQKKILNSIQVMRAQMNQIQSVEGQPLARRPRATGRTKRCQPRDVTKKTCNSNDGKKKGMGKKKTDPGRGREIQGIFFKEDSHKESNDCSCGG

Sequence	phosphorylation enrichment
TFEFRYLEDRD [CNOT3_Y746_YF]	0.756
RWHEGYRQTPK [CD44_Y412]	0.589
YPKVRYHWLVL [APTX_Y214_A212V]	0.758
DTKPVYQNLRQ [BOD1_Y82_A81V]	0.44
DTQNSYWCATS [TSC1_Y304_G305W]	0.456
GLDGSYLLRDS [SH2D1A_Y29]	0.387
ESVNTYLQTSP [NAT1_Y208_M205V]	0.838
PSAEGYQDVRD [ABLIM1_Y439]	0.649
MSSHHCDFKKF [ZNF445_Y428_Y428C_YF]	0.393
NLTVNYKKNLI [SQOR_Y259]	0.401
SPPEVYAIMRG [NTRK1_Y757_C752S]	0.641
EVEFQYPFRLH [SYP_Y73_E72Q]	0.498
FHKALYTVRSY [PDE6C_Y266]	0.524
DLQDEYDFKRK [STAT1_Y170_C174R]	0.54
IVTLKYPIEHG [ACTB_Y69_L65V]	0.412
EILLSYPRTGF [TGM1_Y365_L366P_YF]	0.533
EIASHYRHLLR [ZBTB46_Y14_T11A]	0.42

Sequence	phosphorylation enrichment
DRLASYLDKVR [KRT10_Y160]	0.429
LLSVAYQNVVG [YWHAG_Y49_K50Q]	1.07
MALDIYRASYY [ALK_Y1278_R1275L]	0.564
KIIRWYVSSEG [ANK2_Y3907_R3906W]	0.679
LEAVSYSSPFA [RNLS_Y190_R193P_YF]	0.908
AAVDTVCRHNF [HLA-DRB1_Y107_Y107V_YF]	0.577
RRIHSYRGYLW [VHL_Y112_H115Y]	0.605
LLDGEYFTLQI [TP53_Y327_P322L]	1.49
RVNSAYQDKVS [ACAN_Y100]	0.648
LGGAMYFLEAE [PKHD1_Y452_YF]	0.984
NPSFNYEIVNR [DYNC1H1_Y3379_YF]	1.29
HFEFKYVINAI [MAOA_Y268_C266F_YF]	0.89
QDGYSYLSRQM [LDLR_Y847_P848L]	0.467
TEQDPYNSIVR [MMUT_Y364_N366S]	0.616
YTHSDYQYGQR [PKP2_Y166_S169G]	0.416
LITILYIGFLG [KCNQ1_Y267_T265I]	1.18

Biological target: Fes (UniProt P07332)
Assay: as above

Chain of Fes (P07332 whole entry, looked up): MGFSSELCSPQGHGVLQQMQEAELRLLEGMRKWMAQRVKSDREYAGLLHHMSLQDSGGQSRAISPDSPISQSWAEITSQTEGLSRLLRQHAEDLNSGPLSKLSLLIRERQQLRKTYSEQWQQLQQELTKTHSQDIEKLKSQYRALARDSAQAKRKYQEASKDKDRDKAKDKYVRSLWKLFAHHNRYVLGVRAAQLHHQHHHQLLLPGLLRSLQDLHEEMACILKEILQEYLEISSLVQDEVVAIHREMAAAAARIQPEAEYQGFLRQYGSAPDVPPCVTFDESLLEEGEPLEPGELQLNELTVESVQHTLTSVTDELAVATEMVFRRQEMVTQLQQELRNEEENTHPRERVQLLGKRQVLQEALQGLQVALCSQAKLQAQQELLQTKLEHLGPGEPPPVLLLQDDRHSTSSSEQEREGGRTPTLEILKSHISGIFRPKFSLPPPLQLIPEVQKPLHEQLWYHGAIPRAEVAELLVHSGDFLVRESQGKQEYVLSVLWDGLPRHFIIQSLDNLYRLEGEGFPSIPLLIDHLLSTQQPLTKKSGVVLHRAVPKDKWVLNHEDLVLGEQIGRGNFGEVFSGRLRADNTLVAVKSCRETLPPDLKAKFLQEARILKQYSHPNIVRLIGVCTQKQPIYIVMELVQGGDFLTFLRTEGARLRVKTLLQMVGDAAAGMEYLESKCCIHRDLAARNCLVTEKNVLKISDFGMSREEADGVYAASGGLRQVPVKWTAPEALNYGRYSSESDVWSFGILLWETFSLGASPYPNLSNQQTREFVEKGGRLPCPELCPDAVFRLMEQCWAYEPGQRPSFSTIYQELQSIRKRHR

Sequence	phosphorylation enrichment
TFEFRYLEDRD [CNOT3_Y746_YF]	1.37
RWHEGYRQTPK [CD44_Y412]	0.678
YPKVRYHWLVL [APTX_Y214_A212V]	1.35
DTKPVYQNLRQ [BOD1_Y82_A81V]	0.752
DTQNSYWCATS [TSC1_Y304_G305W]	0.916
GLDGSYLLRDS [SH2D1A_Y29]	0.622
ESVNTYLQTSP [NAT1_Y208_M205V]	0.887
PSAEGYQDVRD [ABLIM1_Y439]	1.08
MSSHHCDFKKF [ZNF445_Y428_Y428C_YF]	0.487
NLTVNYKKNLI [SQOR_Y259]	1.05
SPPEVYAIMRG [NTRK1_Y757_C752S]	0.808
EVEFQYPFRLH [SYP_Y73_E72Q]	1.23
FHKALYTVRSY [PDE6C_Y266]	0.919
DLQDEYDFKRK [STAT1_Y170_C174R]	1.16
IVTLKYPIEHG [ACTB_Y69_L65V]	0.76
EILLSYPRTGF [TGM1_Y365_L366P_YF]	0.935
EIASHYRHLLR [ZBTB46_Y14_T11A]	0.585

Sequence	phosphorylation enrichment
DRLASYLDKVR [KRT10_Y160]	0.643
LLSVAYQNVVG [YWHAG_Y49_K50Q]	1.25
MALDIYRASYY [ALK_Y1278_R1275L]	0.911
KIIRWYVSSEG [ANK2_Y3907_R3906W]	1.34
LEAVSYSSPFA [RNLS_Y190_R193P_YF]	1.06
AAVDTVCRHNF [HLA-DRB1_Y107_Y107V_YF]	1.29
RRIHSYRGYLW [VHL_Y112_H115Y]	0.905
LLDGEYFTLQI [TP53_Y327_P322L]	5.59
RVNSAYQDKVS [ACAN_Y100]	0.796
LGGAMYFLEAE [PKHD1_Y452_YF]	1.8
NPSFNYEIVNR [DYNC1H1_Y3379_YF]	1.19
HFEFKYVINAI [MAOA_Y268_C266F_YF]	2.11
QDGYSYLSRQM [LDLR_Y847_P848L]	0.94
TEQDPYNSIVR [MMUT_Y364_N366S]	1.01
YTHSDYQYGQR [PKP2_Y166_S169G]	0.496
LITILYIGFLG [KCNQ1_Y267_T265I]	2.55
